Data from publication PMC4673497.

B1: Probe-1386 (neighbour element -1392 replaced with A) (dsDNA)
DNA 1: AATGTGTAATTGTCAAGAGGGATAAAAAAACGCGGATGAATCGAAGAAGCAATTGCTTT
DNA 2: AAAGCAATTGCTTCTTCGATTCATCCGCGTTTTTTTATCCCTCTTGACAATTACACATT
B2: Probe-473 (dsDNA)
DNA 1: TTATGTGTATGTTGTTATCTACAATATGTCCGTTTCAATCAGTCGAACAAAAAATACTA
DNA 2: TAGTATTTTTTGTTCGACTGATTGAAACGGACATATTGTAGATAACAACATACACATAA
B3: Probe-1007 (dsDNA)
DNA 1: CATAAGGTATTCTTTTACACTAATACTTTCCCGACAACAACAACGAAAAACTCCAACCT
DNA 2: AGGTTGGAGTTTTTCGTTGTTGTTGTCGGGAAAGTATTAGTGTAAAAGAATACCTTATG
B4: Probe-902 (dsDNA)
DNA 1: TATTTAACTATTGCTTTTTTGATTATTAGCCGGGGTACCAAGATATTAGTTTTTAATTT
DNA 2: AAATTAAAAACTAATATCTTGGTACCCCGGCTAATAATCAAAAAAGCAATAGTTAAATA
B5: Probe-1392 (neighbour element -1386 replaced with A) (dsDNA)
DNA 1: AATGTGTAATTGTCAAGAGGGATAAACCGAAAAAAATGAATCGAAGAAGCAATTGCTTT
DNA 2: AAAGCAATTGCTTCTTCGATTCATTTTTTTCGGTTTATCCCTCTTGACAATTACACATT
B6: Probe-1086 (neighbour element -1080 replaced with A) (dsDNA)
DNA 1: CTTCTAGGAAAAAACAATTCTTGATACGGTAAAAAAAAGATCTTGATAACATTGTGACT
DNA 2: AGTCACAATGTTATCAAGATCTTTTTTTTACCGTATCAAGAATTGTTTTTTCCTAGAAG
B7: Probe-1080 (neighbour element -1086 replaced with A) (dsDNA)
DNA 1: CTTCTAGGAAAAAACAATTCTTGAAAAAATCGCGGAAAGATCTTGATAACATTGTGACT
DNA 2: AGTCACAATGTTATCAAGATCTTTCCGCGATTTTTTCAAGAATTGTTTTTTCCTAGAAG
B8: Probe-863 (dsDNA)
DNA 1: AAGATATTAGTTTTTAATTTAGTAATATACCCATATGTTTAATATTGATATCGATATTG
DNA 2: CAATATCGATATCAATATTAAACATATGGGTATATTACTAAATTAAAAACTAATATCTT

Molecular target: T1, His-FLP (FOUR LIPS, MYB124) (UniProt Q94FL6 1-436)
T1 sequence: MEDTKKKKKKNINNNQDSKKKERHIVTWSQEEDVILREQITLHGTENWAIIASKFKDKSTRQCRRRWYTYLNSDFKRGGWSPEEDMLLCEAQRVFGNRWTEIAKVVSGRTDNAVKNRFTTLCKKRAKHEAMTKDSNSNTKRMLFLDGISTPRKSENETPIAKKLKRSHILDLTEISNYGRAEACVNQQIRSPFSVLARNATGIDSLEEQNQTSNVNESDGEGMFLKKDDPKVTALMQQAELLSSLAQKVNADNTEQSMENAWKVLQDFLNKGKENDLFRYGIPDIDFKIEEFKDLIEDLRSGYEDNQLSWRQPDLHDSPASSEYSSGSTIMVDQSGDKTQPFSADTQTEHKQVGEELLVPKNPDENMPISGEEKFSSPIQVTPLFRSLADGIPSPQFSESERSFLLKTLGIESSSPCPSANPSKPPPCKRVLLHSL
Assay: EMSA; 1x binding buffer (LightShift kit), 2.5% glycerol, 50 mM KCl, 5 mM MgCl2, 0.05% NP-40, 10 mM EDTA, room temperature, 20 min; pH not stated

Row | Binder | binding result
1 | B1 | binds
2 | B2 | no binding
3 | B3 | no binding
4 | B4 | binds
5 | B5 | binds
6 | B6 | binds
7 | B7 | binds
8 | B8 | no binding

Molecular target: T2, His-MYB88 (UniProt F4IRB4 1-484)
T2 sequence: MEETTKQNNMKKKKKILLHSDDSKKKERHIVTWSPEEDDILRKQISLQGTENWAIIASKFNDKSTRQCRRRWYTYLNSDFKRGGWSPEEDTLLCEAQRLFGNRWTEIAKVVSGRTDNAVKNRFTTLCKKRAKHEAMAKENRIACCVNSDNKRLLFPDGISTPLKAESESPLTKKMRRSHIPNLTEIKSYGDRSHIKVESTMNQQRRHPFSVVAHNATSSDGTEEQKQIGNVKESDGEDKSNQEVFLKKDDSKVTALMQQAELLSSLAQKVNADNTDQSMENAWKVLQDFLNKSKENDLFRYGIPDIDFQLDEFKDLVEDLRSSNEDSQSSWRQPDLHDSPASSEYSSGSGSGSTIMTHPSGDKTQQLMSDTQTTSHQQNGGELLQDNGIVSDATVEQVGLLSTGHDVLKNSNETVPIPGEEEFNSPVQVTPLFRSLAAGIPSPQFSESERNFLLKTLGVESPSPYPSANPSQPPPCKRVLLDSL
Assay: as above

Row | Binder | binding result
9 | B1 | binds
10 | B4 | binds
11 | B5 | binds
